Experimental data: patent US20140223606, “COMPOSITIONS AND METHODS COMPRISING SEQUENCES HAVING MEGANUCLEASE ACTIVITY” (PIONEER HI BRED INTERNATIONAL INC, published 2014)

What was measured:
Details in all cases: tags: NLS, 6xHis
[1] = target: T1, ZM6.22v2(I9) (artificial); assay: cell_activity; yeast 37 C; 30 C: 0
T1 chain: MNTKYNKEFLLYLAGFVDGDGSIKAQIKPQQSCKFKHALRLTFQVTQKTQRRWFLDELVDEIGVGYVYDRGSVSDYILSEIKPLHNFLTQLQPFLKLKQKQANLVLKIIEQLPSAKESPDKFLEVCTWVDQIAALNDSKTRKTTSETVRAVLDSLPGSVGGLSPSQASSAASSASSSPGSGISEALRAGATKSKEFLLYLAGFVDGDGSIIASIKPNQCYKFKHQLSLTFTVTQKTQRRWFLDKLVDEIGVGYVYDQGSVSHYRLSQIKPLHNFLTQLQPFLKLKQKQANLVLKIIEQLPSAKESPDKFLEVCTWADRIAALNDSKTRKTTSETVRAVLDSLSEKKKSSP
Procedure: (§1) A 3 mL culture of selective media (MP Biomedical) was inoculated with a single colony of the yeast screening strain and grown at 30° C. overnight. On the following day, a 50 ml YPD culture (MP Biomedical) was started with 2 ml of the overnight culture and grown at 30° C. overnight. On the following day, the cells were harvested by centrifugation at 4000 rpm. The cells were resuspended in 100 ml ice cold water and centrifuged again. The cells were then washed in 1.2 M sorbitol, followed by treatment with 2 ml of 10 mM Tris pH 8.0, 1 mM EDTA, 100 mM Lithium acetate, 10 mM DTT, 0.6M sorbitol for 30 minutes at 30° C. with shaking. The cells were recovered by centrifugation, washed in 40 ml 1.2M sorbitol and finally resuspended in 250 microliters of 1.2M sorbitol. 50 microliter aliquots were transferred to test tubes on ice. Up to 5 microliters of DNA (100-500 nanograms) were added. The suspension was transferred to a 0.2 cm electroporation cuvette, on ice. Electroporation was performed with a pulse charge at 1.5 kV, 200 ohms, 25 microF (pulse time of 5 milliseconds). 1 mL YPD media (MP Biomedical) was added and the cells were allowed to recover at 30° C. for 1-2 hr. The cells were centrifuged, resuspended in 100 uL 1M sorbitol and plated on selective media lacking leucine and containing 2% galactose. The resulting yeast colonies were incubated at various temperatures ranging from 22 to 37 degrees Celsius for 7-10 days. I-CreI and meganucleases derived from it have maximal activity at or above 37 degrees Celsius. Screening was performed at a range of temperatures from 22 to 37 degrees in order to observe increases in activity at lower temperatures which are relevant to certain biological systems (eg. plant cells, plant cell cultures, etc). At that time the red/white sectoring phenotype, indicative of meganuclease activity was observed. Colonies with increased white sectoring over the parental meganuclease (indicating colonies expressing a meganuclease with increased meganuclease activity), also referred to as “hits” and sometimes completely white, were isolated for further analysis.
(§2) A total of 13 ZM6.22v2 variants with increased activity were confirmed in the yeast system (as described in Example 6). Increased activity was observed across a range of temperatures: 28 degrees Celsius, 30 degrees Celsius and 37 degrees Celsius, as shown in Table 16.

[2] = target: T2, ZM6.22v2(I3) (artificial); assay: cell_activity; yeast 37 C; 30 C: 0
T2 chain: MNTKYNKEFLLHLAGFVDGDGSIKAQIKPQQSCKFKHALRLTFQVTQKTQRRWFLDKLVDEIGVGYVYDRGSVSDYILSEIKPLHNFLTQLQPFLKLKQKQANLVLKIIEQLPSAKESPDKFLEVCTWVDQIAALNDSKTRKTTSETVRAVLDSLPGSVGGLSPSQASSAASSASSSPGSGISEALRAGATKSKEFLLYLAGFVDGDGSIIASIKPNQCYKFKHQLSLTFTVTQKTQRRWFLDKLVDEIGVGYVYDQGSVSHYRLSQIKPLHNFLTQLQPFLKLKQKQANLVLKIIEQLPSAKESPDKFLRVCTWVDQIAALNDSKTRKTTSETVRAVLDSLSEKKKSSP
Procedure: as §1, §2

[3] = target: T3, LIG3-4(A4) (artificial); assay: cell_activity; yeast 30 C; 22 C: 0
T3 chain: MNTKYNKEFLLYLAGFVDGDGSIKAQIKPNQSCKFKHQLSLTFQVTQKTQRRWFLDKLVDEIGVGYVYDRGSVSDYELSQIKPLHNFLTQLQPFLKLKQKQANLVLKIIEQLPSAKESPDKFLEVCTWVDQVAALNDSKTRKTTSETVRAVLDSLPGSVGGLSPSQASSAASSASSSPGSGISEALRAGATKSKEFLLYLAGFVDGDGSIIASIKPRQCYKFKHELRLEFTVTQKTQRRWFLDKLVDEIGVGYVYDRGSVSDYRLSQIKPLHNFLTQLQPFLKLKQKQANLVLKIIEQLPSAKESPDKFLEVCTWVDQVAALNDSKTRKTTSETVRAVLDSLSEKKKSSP
Procedure: as §1

[4] = target: T4, LIG3-4(B24) (artificial); assay: cell_activity; yeast 30 C; 22 C: 0
T4 chain: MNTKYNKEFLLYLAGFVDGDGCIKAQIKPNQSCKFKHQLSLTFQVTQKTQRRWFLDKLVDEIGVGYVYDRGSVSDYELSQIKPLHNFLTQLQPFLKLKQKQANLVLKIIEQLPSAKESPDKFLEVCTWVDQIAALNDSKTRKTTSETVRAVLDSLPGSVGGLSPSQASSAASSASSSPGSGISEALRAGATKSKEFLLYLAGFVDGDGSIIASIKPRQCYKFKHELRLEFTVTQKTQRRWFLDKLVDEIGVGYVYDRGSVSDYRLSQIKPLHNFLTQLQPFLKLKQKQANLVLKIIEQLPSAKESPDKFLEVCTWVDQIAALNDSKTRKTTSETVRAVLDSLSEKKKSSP
Procedure: as §1

[5] = target: T5, LIG3-4(B55) (artificial); assay: cell_activity; yeast 30 C; 22 C: 0
T5 chain: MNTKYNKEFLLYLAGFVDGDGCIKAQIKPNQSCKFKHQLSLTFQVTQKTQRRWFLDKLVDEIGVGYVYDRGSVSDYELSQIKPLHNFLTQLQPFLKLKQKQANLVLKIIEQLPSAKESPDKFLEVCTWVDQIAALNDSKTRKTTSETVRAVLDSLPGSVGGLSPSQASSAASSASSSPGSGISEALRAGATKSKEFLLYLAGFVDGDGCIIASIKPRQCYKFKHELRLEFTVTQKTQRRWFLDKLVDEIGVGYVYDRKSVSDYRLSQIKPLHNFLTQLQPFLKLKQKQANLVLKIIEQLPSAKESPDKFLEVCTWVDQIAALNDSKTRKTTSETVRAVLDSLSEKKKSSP
Procedure: as §1

Row | Binder | activity [1] [score 0-4] | activity [2] [score 0-4] | activity [3] [score 0-4] | activity [4] [score 0-4] | activity [5] [score 0-4]
1 | ZM6.22v2 recognition site (dsDNA) DNA 1: ATTGCTCTCTCACATACTTTTA DNA 2: TAAAAGTATGTGAGAGAGCAAT | 2 | 2 | – | – | –
2 | LIG3-4 recognition site (dsDNA) DNA 1: ATATACCTCACACGTACGCGTA DNA 2: TACGCGTACGTGTGAGGTATAT | – | – | 3.5 | 4 | 4
